Laboratory results taken from article PMC10491969 (Journal of Advanced Research, 2022).

Target: T1, Recombinant human TRAF2 protein (human, UniProt Q12933 1-501)
T1 sequence (looked up): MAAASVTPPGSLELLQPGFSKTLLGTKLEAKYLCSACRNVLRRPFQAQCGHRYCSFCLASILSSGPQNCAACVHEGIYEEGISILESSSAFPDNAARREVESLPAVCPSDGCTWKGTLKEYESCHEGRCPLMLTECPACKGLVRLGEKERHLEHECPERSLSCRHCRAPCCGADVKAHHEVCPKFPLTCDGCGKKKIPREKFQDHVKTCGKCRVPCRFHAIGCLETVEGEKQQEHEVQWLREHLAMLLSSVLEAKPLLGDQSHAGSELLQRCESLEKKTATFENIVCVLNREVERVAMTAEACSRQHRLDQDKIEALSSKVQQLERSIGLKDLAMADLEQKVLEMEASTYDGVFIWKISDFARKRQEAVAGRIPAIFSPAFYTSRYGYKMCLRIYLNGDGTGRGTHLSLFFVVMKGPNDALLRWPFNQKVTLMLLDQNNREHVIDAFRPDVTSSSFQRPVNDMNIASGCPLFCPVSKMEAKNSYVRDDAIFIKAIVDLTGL
Assay: SPR

- Kd: 502 nM
B1: Recombinant human STING protein (natural protein, UniProt Q86WV6 135-379, looked up)
chain: GLKGLAPAEISAVCEKGNFNVAHGLAWSYYIGYLRLILPELQARIRTYNQHYNNLLRGAVSQRLYILLPLDCGVPDNLSMADPNIRFLDKLPQQTGDHAGIKDRVYSNSIYELLENGQRAGTCVLEYATPLQTLFAMSQYSQAGFSREDRLEQAKLFCRTLEDILADAPESQNNCRLIAYQEPADDSSFSLSQEVLRHLRQEEKEEVTVGSLKTSAVPSTSTMSQEPELLISGMEKPLPLRTDFS
